For one test, the target named is FcγRIIIb (CD16b) (UniProt O75015). Briefly: SPR; BIAcore X100; receptor (20 µg/mL) captured by anti-His-tag antibodies on a CM5 chip, each receptor on its own chip; charge variant as analyte, 2.5 µM to 40 µM, single-cycle; HBS-EP buffer (10 mM HEPES pH 7.4, 150 mM NaCl, 50 µM EDTA, 0.005% P20).
A further test addresses FcγRIIIa (CD16a) (UniProt P08637). The description is as above.

Take “trastuzumab proposed biosimilar, acidic charge variants (acidic peak) (antibody)”: in the test with FcγRIIIb (CD16b), the equilibrium dissociation constant (Kd) worked out at 14.3 µM, the koff stood at 0.82 s⁻¹ and the kon was 106000 M⁻¹ s⁻¹.

Turning to “trastuzumab proposed biosimilar, acidic charge variants (acidic peak) (antibody; other documents disagree on this pair)”, in the test with FcγRIIIa (CD16a), the koff was 0.08 s⁻¹ and the kon worked out at 102000 M⁻¹ s⁻¹.

For the substance “trastuzumab proposed biosimilar, basic charge variants (basic peak) (antibody)”, in the test with FcγRIIIb (CD16b), the koff was 0.33 s⁻¹ and the kon worked out at 25600 M⁻¹ s⁻¹.

In the test with FcγRIIIa (CD16a), “trastuzumab proposed biosimilar, basic charge variants (basic peak) (antibody; other documents disagree on this pair)” returned a koff of 0.05 s⁻¹ and a kon of 31300 M⁻¹ s⁻¹.

For the substance “trastuzumab proposed biosimilar, main charge variant (main peak) (antibody)”, in the test with FcγRIIIb (CD16b), the koff stood at 0.34 s⁻¹ and the kon came out at 15400 M⁻¹ s⁻¹.

“trastuzumab proposed biosimilar, main charge variant (main peak) (antibody; other documents disagree on this pair)”: in the test with FcγRIIIa (CD16a), the off-rate constant (koff) stood at 0.09 s⁻¹ and the kon worked out at 36600 M⁻¹ s⁻¹.
